In patent publication US7951560B2, “Delta 4,5 glycuronidase compositions and methods related thereto” (Massachusetts Institute of Technology, priority 2002, dated 2011):
“Also recorded” adds a separate entry of the source.

Tests used:
[1] = Specific activity of recombinant Δ4, 5 glycuronidase purification fractions; assay type: biochemical; conditions: 800 ng protein, 120 μM ΔUHNAc, 100 μl
Procedure: (§1) Assay for enzyme activity and determination of kinetic parameters. Standard reactions were carried out at 30° C. and included 100 mM sodium phosphate buffer, pH 6.4, 50 mM NaCl, 500 μM disaccharide substrate and 200 nM enzyme in a 100 μl reaction volume. Hydrolysis of heparin disaccharides was determined spectrophotometrically by measuring the loss of the Δ4, 5 chromophore measured at 232 nm Substrate hydrolysis was calculated using the following molar extinction coefficients empirically determined for each disaccharide substrate: ΔUHNAc, ε232=4,524; ΔUHNAc6S, ε232=4,300; ΔUHNS, ε232=6,600; ΔUHNS,6S, ε232=6,075; ΔUHNH26S, ε232=4,826; ΔU2SHNS, ε232=4,433. Initial rates (Vo) were extrapolated from linear activities representing <10% substrate turnover and fit to pseudo first-order kinetics. For kinetic experiments, disaccharide concentration for each respective substrate was varied from 48 to 400 μM concentrations. Km and kcat values were extrapolated from Vo vs. [S] curves fit to the Michaelis Menten equation by a non-linear, least squares regression.
(§2) A two-step purification comprised of Ni^+2 chelation chromatography followed by thrombin cleavage to remove the 6× His purification tag, typically yielded over 200 mg of greater than 90% pure enzyme as assessed by SDS-PAGE followed by Coomassie Brilliant Blue staining. […] T. and Linker, A., 1972, Biochemistry 11, 568-72]. While removal of the 6× His tag from the N-terminus of the enzyme was unnecessary for optimal hydrolytic activity, the presence of the histidine tag did appear to instigate protein precipitation over an extended time especially at higher enzyme concentrations. This tag was, therefore removed for all subsequent biochemical experiments. In this manner, the recombinant protein was stable at 4° C. for at least two weeks during which time it remained in solution at protein concentrations exceeding 10 mg/mL under the buffer conditions described.

[2] = Biochemical conditions for optimal enzyme activity (NaCl, pH, temperature, divalent metals)
Procedure: For experiments measuring the relative effect of ionic strength on glycuronidase activity, the NaCl concentration was varied from 0.05 to 1 M in 0.1 M sodium phosphate buffer (pH 6.4), 200 μM ΔUHNS,6S and […] under otherwise standard reaction conditions. The effect of pH on catalytic activity was kinetically determined at varying AUHNS,6S concentrations in 0.1 M sodium phosphate buffer at pH 5.2, 5.6, 6.0, 6.4, 6.8, 7.2 and 7.8. Data were fit to Michaelis-Menten kinetics as described above and the relative kcat/Km ratios plotted as a function of pH.
To determine the optimal reaction conditions for Δ4, 5 glycuronidase activity, we analyzed initial reaction rates as a function of buffer, pH, temperature, and ionic strength (FIG. 6). For these experiments, we used the disulfated heparin disaccharide substrate ΔUHNS,6S. Based on what is known about the degradation of heparin/heparan sulfate-like glycosaminoglycans by flavobacteria as well as initial biochemical characterization of this and related enzymes [Warnick, C. T. and Linker, A., 1972, Biochemistry 11, 568-72], we hypothesized that a heparin disaccharide would be an optimal substrate for the Δ4, 5 glycuronidase. Enzyme activity was routinely monitored by a loss of absorbance at 232 nm, corresponding indirectly to the hydrolysis of the uronic acid from the non-reducing end.

[3] = Kinetic comparison of native and recombinant enzymes; assay type: biochemical; conditions: identical reaction conditions, 200 nM enzyme, 500 μM ΔUHNAc
Procedure: FIG. 7 depicts a kinetic comparison of native and recombinant enzymes. Relative specific activities were measured for both enzyme fractions under identical reaction conditions that included 200 nM enzyme and 500 μM of the heparin disaccharide substrate (ΔUHNAc). Flavobacterial Δ4, 5 (closed circles); recombinant Δ4, 5 (open circles).
Having established the reaction conditions for optimal Δ4, 5 glycuronidase activity, we next compared the specific activity of the recombinant enzyme (Δ4,5^Δ20) relative to the native enzyme purified directly from F. heparinum (FIG. 7). The activities of both enzyme fractions were measured in parallel under identical reaction conditions.

[4] = Storage stability and solubility of the recombinant protein after 6× His tag removal; assay type: physicochemical; conditions: 6× His tag removed, phosphate buffer
Procedure: as §2

[5] = substrate: CC(=O)N[C@H]1C(O)O[C@H](CO)[C@@H](O[C@@H]2OC(C(=O)O)=C[C@H](O)[C@H]2O)[C@@H]1O; assay: Kinetic parameters of Δ4, 5 glycuronidase for disaccharide substrates (loss of absorbance at 232 nm, Michaelis-Menten fit); assay type: biochemical, F. heparinum; conditions: other: 200 nM enzyme, 30° C., pH 6.4, substrate 48 to 400 μM
Procedure: as §1
(§3) The specificity of the Δ4, 5 glycuronidase acting on various glycosaminoglycan disaccharide substrates was investigated. The various substrates examined included both heparin and chondroitin disaccharides as well as an hyaluronadate. In particular, we considered the possibility of any structural discriminations pertaining to glycosidic linkage position (1→4 vs. 1→3) and relative sulfation state within the disaccharide. For each substrate, kinetic parameters were determined based on substrate saturation profiles that fit Michaelis-Menten assumptions (FIG. 8).

[6] = substrate: CC(=O)N[C@H]1C(O)O[C@H](COS(=O)(=O)O)[C@@H](O[C@@H]2OC(C(=O)O)=C[C@H](O)[C@H]2O)[C@@H]1O; assay: as above; assay type: biochemical, F. heparinum; conditions: other: 200 nM enzyme, 30° C., pH 6.4, substrate 48 to 400 μM
Procedure: as §1, §3

[7] = substrate: N[C@H]1C(O)O[C@H](COS(=O)(=O)O)[C@@H](O[C@@H]2OC(C(=O)O)=C[C@H](O)[C@H]2O)[C@@H]1O; assay: as above; assay type: biochemical, F. heparinum; conditions: other: 200 nM enzyme, 30° C., pH 6.4, substrate 48 to 400 μM
Procedure: as §1, §3

[8] = substrate: O=C(O)C1=C[C@H](O)[C@@H](O)[C@H](O[C@H]2[C@H](O)[C@@H](NS(=O)(=O)O)C(O)O[C@@H]2CO)O1; assay: as above; assay type: biochemical, F. heparinum; conditions: other: 200 nM enzyme, 30° C., pH 6.4, substrate 48 to 400 μM
Procedure: as §1, §3

[9] = substrate: O=C(O)C1=C[C@H](O)[C@@H](O)[C@H](O[C@H]2[C@H](O)[C@@H](NS(=O)(=O)O)C(O)O[C@@H]2COS(=O)(=O)O)O1; assay: as above; assay type: biochemical, F. heparinum; conditions: other: 200 nM enzyme, 30° C., pH 6.4, substrate 48 to 400 μM
Procedure: as §1, §3

B1: recombinant Δ4, 5 glycuronidase (Δ4,5^Δ20) (Pedobacter heparinus DSM 2366) (protein)
chain: MTVTKGNGDDWLKKSTKTAVIQLTRAAQTYTPGMNPRSVNPDGTVRLAPPRDWTTGFFPGTLWYGYELSGDKNLAAEAKRFTLALDTIQYVKDTHDLGFMLYCSYGNAYRVTGDKIYLKPLENGAANLYARFNKKVGAIRSWDFGHWQFPVIIDNLMNLEYLYWAGKEFNKPEWFDAAKTHAVTTMKNHFRKDYSSYHVISYDTLSGKVLQRETHQGLTNESAWARGQAWGLYGYTMSYKDTKDKKFIEHAEHIAAFIMNHPAMPADKIPLWDFDVHNRDRSPRDASAAAVIASALLDLSTQVKDGQKYFKFAEDILKTLSSDEYLAKPGENQFFILKHSVGALLYNSEIDTPLNYADYYYLEALKRYAEIKKIDLKTINQS
With B1 the “Sp. Activity” value ([1]; Crude lysate) was 4.7 μmoles DiS/min./mg protein, the “Sp. Activity” value ([1]; Ni^+2 chromatography) was 12.9 μmoles DiS/min./mg protein and the “Sp. Activity” value ([1]; Thrombin cleavage) was 13.6 μmoles DiS/min./mg protein. For the same molecule, the “requirement for divalent metal ions” value [2] was “no evidence that metals are either required for catalysis or activate the enzyme”, the pH optimum ([2]; 0.1 M sodium phosphate pH 5.2-7.8, ΔUHNS,6S, relative kcat/Km) was 6.4 and the “initial reaction rates at highest temperatures” value ([2]; especially at 42° C.) was “significantly reduced”. The “relative enzyme activities after preincubation (enzyme stability)” value ([2]; preincubation at 30, 37, and 42° C., then measured at standard 30° C.) was “no significant change”, the “inhibition at 250 mM NaCl” value ([2]; relative to 100% activity at 100 mM NaCl) was “approximately 60%” and the “specific activity relative to the native Flavobacterial enzyme” value [3] was “approximately three-fold; also recorded: at least two-fold; also recorded: roughly three-fold”. For the same molecule, the “stable at 4° C.” value [4] was “at least two weeks”, the Km [5] was 283 ± 31 µM and the kcat [5] was 15.3 ± 0.9 s⁻¹. For the same molecule, the kcat/Km [5] was 54000 M⁻¹ s⁻¹, the Km [6] was 107 ± 15 µM and the kcat [6] was 11.7 ± 0.6 s⁻¹. For the same molecule, the kcat/Km [6] was 110000 M⁻¹ s⁻¹, the Km [7] was 235 ± 40 µM and the kcat [7] was 2.4 ± 0.2 s⁻¹. The kcat/Km [7] was 10000 M⁻¹ s⁻¹, the Km [8] was 251 ± 40 µM and the kcat [8] was 4.9 ± 0.4 s⁻¹. It also gave a kcat/Km [8] of 20000 M⁻¹ s⁻¹, a Km [9] of 334 ± 57 µM and a kcat [9] of 8.8 ± 0.9 s⁻¹. The kcat/Km [9] was 26000 M⁻¹ s⁻¹.
